Laboratory results as given in the supplement of paper PMC9170038.

Test system: MS2 coat protein
Experiment: apparent KD of MS2 coat protein; designed switch direction (-1 OFF switch, 1 ON switch): -1; higher = weaker reporter binding
How it was run: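 The apparent KD reported per design is the median over clusters of curve fits to normalised cluster fluorescence. The RNA switches were transcribed on Illumina chips by stalled E. coli RNA polymerase. SNAP-549-labelled MS2 coat protein was titrated from 0.7 or 1.5 nM, doubling up to 3 µM, in Tris-HCl pH 7.5 buffer containing KCl, MgCl2, BSA, DTT, tRNA and Tween-20, with no input, 200 uM small-molecule ligand, or an oligonucleotide input.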

[1] = input ligand: microRNA oligo, concentration not stated
[2] = Eterna round: R95, input ligand: FMN 200 uM
[3] = Eterna round: R95, input ligand: microRNA oligo, concentration not stated
[4] = Eterna round: R95, input ligand: none

| Sequence | apparent KD of MS2 coat protein (input ligand: FMN 200 uM) [nM] | apparent KD of MS2 coat protein [1] [nM] | apparent KD of MS2 coat protein (input ligand: none) [nM] | apparent KD of MS2 coat protein [2] [nM] | apparent KD of MS2 coat protein [3] [nM] | apparent KD of MS2 coat protein [4] [nM] |
| --- | --- | --- | --- | --- | --- | --- |
| GCUGCAAAUGUAGGAUAUCUGCACGAUUAGUGCAGAGAAGGACAUGAGGAUCACCCAUGUAGAUCAGCAGCAAUUAAUUUAAUU [ENG1/5-A1] (Eterna round: R96, puzzle: Exclusion NG 1) | 413 | 42.1 | 41.5 | – | – | – |
| CCACGACAUGAGGAUCACCCAUGUGAGGAUAUGGCCUGUAAAGCGUGAGCUGAAUCAAUCAGAAGGCGCGUGGG [salish99_ex1_r4_058] (Eterna round: R97, puzzle: Exclusion 1) | 119 | – | 46.1 | – | – | – |
| UAAAAGAUGGACGAACCACAUGAGGAUCACCCAUGUCGAGGUUAGGAUAUGUCGUCCAUGGGACCACAGAAGGGACUGAAGACU [Teraqu] (Eterna round: R96, puzzle: Exclusion NG 3) | 16 | 11.3 | 20.2 | – | – | – |
| CUCUGCACGCUGCGGUCCUACAUGAGGAUCACCCAUGUGGUCUGGUGGCGUGGGUCACCGGACUUGGCUCGUCUUGC [salish99_S_TOV1_R5_051] (Eterna round: R97, puzzle: Sensor, turn-off variant 1) | 21 | – | 22.7 | – | – | – |
| UAUAAGGUAGGAUAUACGAAUAAAUAGGGUAGAAUAAUAACACAUGAGGAUCACCCAUGUAGAAGGACCAAUAU [Mat - Exclusion 2 - Mod of my Tesla design - D28] (puzzle: Exclusion 2) | – | – | – | 39.3 | 21.1 | 20.3 |
| UUUUAAUAUGAAGGAUAUACUUAACAUGAGGAUCACCCAUGUGGUGUUGUGAGUGAGUGAGUUUAGUAGAAGGUCAAUUCUUUU [JMF's solution 89] (Eterna round: R96, puzzle: Exclusion NG 2) | 563 | 442 | 366 | – | – | – |
| AAAUACAAGUAAAGGUUCUACAUGAGGAUCACCCAUGUGCUCGUCUUAUAAAGUACUAUCACGAAAGUGAUAGUACA [Sensor 3, v1 - 39] (puzzle: Sensor v3, turn-off variant 1) | – | – | – | 19.2 | 92.5 | 16 |
| CCAAGUUCAUAGGAUAUCAGACGGAUAAAGGUAUGAGAAGGAUGAACAUGAGGAUCACCCAUGUGCACUCCCGA [EX6 B.19] (Eterna round: R97, puzzle: Exclusion 6) | 34.1 | – | 14.2 | – | – | – |
| AAAAUGUGAGGAUAUCAGGUGUGCUAGCGUACUGGUACAUCUGAGAAGGCACAUGAGGAUCACCCAUGUUUCUU [Mat - Exclusion 4 - Mod of JL - D44] (puzzle: Exclusion 4) | – | – | – | – | 22.5 | – |
| CUGAGGUAGCGGUCCUAUGACAUGAGGAUCACCCAUGUACCUUGCUUCGAGCAUUUUGCUCGUCUUAUGAUUCUCGG [Mat - Sensor v3 - turn-off var 1 - JL Mod - D35] (puzzle: Sensor v3, turn-off variant 1) | – | – | – | 450 | 481 | 507 |
| UUGUUGUAUGUAGGAUAUGCAUAUUAUUAUUAUGCAGAAGGACAUGAGGAUCACCCAUGUAUAUUAUUAUUAUAUGUUAUAUAU [Title] (Eterna round: R96, puzzle: Exclusion NG 1) | – | 20 | – | – | – | – |
| CCCAUAUUGGAAGGAUAUUACCACAUGAGGAUCACCCAUGUGGUUUAAGGCUUACAACGACGUGGUAAGAAGGUCCAUUAUAUG [Eternabot solution 45] (Eterna round: R96, puzzle: Exclusion NG 2) | 28.1 | 13.7 | 15.4 | – | – | – |
| GAAAAGGCAGGAUAUGCAAUGUUUGUCCCAUCUCUCCUAAGACAUGAGGAUCACCCAUGUAGAAGGGCCAGGAA [Eternabot (L2) Solution 62] (Eterna round: R97, puzzle: Exclusion 2) | 33.7 | – | 26.5 | – | – | – |
| GCUAGAGCAGGAUAUUUAGAUCCUCACAUGAGGAUCACCCAUGUGGCCGAAAGGCUAAGAAGAGAAGGGCUCUAGC [Omei Ex5 E22] (Eterna round: R97, puzzle: Exclusion 5) | 199 | – | 789 | – | – | – |
| CCCAUGUCAGGAUAUUAAUUGGGCGGGAAAUCCCACCCACUUGAGAAGGGACAUGAGGAUCACCCAUGUAAAAC [Indila] (Eterna round: R97, puzzle: Exclusion 4) | 66.6 | – | 629 | – | – | – |
| CAGUACUGAGGAUAUACAUGAGGAUCACCCAUGUGUUCCAGCUAGGAAACUAGCAAUGGAAGAAGGCAGUACUG [Salish 065 m1] (Eterna round: R97, puzzle: Exclusion 3) | 18.8 | – | 21.6 | – | – | – |
| AGGACAUCAGGCGGCAUGUACAUGAGGAUCACCCAUGUCCUAGAAAGCUGUAUGCUCGUCUUAGGCCCAACCUCGCU [Eternabot (Original) Solution 13] (Eterna round: R97, puzzle: Sensor, turn-off variant 1) | 65.1 | – | 61 | – | – | – |

| Sequence | apparent KD of MS2 coat protein (input ligand: FMN 200 uM) [nM] | apparent KD of MS2 coat protein [1] [nM] | apparent KD of MS2 coat protein (input ligand: none) [nM] | apparent KD of MS2 coat protein [2] [nM] | apparent KD of MS2 coat protein [3] [nM] | apparent KD of MS2 coat protein [4] [nM] |
| --- | --- | --- | --- | --- | --- | --- |
| UAGAAGUUCAACGAGUGAAACAUGAGGAUCACCCAUGUGGUGGUAAGGAACAAGCUUUUUGCACGUACUUAUGAGGA [JR_SV3TOV1_Sub004] (puzzle: Sensor v3, turn-off variant 1) | – | – | – | 287 | 400 | 452 |
| GCCCGUGGGCAAGGAUAUCCUACGCUGUUCUGGUUCGUGUCUGUCACAUGAGGAUCACCCAUGUGGGAGAAGGUGCACCAGGGU [Design 52] (Eterna round: R96, puzzle: Exclusion NG 2) | 13.5 | 10.7 | 14.4 | – | – | – |
| UCGCUGCGAGGAUAUACAUGAGGAUCACCCAUGUGCGGGUCCGGGUUUUCGUCCAUUAGUAGAAGGCGCAGUGA [JL Laongeedie mod 3] (puzzle: Exclusion 3) | – | – | – | – | 269 | – |
| CAGUACUACAAGCUUAGGGACAUGAGGAUCACCCAUGUUCGUCUUAUUGAUCUAGGUACGCUGACGUACCUAGAUCU [JL-sv1-2.12 Brourd mod] (puzzle: Sensor v3, turn-off variant 1) | – | – | – | 15.7 | 29.9 | 15 |
| CUGAGCUGAGGAUAUACAUGAGGAUCACCCAUGUGUUAGAGCUUGCGUACAGGCAGAUGUAGAAGGCAGUUCGG [JL-ex3-3.33 Brourd mod] (puzzle: Exclusion 3) | – | – | – | – | 14.5 | – |
| AGGAUGUUAGGAUAUCGGAGAUGCUGGAGGAGGUGGAUUUACGAGAAGGAACAUGAGGAUCACCCAUGUGGAAG [JR_Exclu4_Sub046] (puzzle: Exclusion 4) | – | – | – | 35.1 | 25.8 | 27.2 |
| CCAGGCAGGCUAUUUGCUCACAUGAGGAUCACCCAUGUUGUAUCCCUUGAAUCUAGAUGGUUCAGGCUUAAUUAUUU [Eternabot (L2) Solution 28] (Eterna round: R97, puzzle: Sensor, turn-off variant 1) | 47.5 | – | 66 | – | – | – |
| UUGAGCAGACGGAGAUCCAACAUGAGGAUCACCCAUGUCUCAUAAGCUUUUUGUUCAUCUUAUUGUACCUUGGUGCA [Mat - Sensor v3 - turn-off var 1 - JL Mod - D24] (puzzle: Sensor v3, turn-off variant 1) | – | – | – | 71.3 | 17 | 64.1 |
| GUCACUAGAGGAUAUACAAUGGUAUAUGAUCCUAGAGACAUACAUGAGGAUCACCCAUGUAGAAGGCUAGUAUU [Exclusion 2 - 5] (puzzle: Exclusion 2) | – | – | – | – | 58.3 | – |
| UUGUUCGAGCGGAGUUCUCACAUGAGGAUCACCCAUGUGCUCGUCUUGUGUGGUUCUGUGGCGUGGUUCGCGGUGCC [Sensor, turn-off variant 1] (Eterna round: R97, puzzle: Sensor, turn-off variant 1) | 237 | – | 292 | – | – | – |
| GGAAUACAUGAGGAUCACCCAUGUAAGGAUAUGCUGAUUAACACGGAAUAAUUAUGCAGCAGAAGGUACAAAGG [Mat - Mod of my Eli Mod D48] (puzzle: Exclusion 1) | – | – | – | – | 113 | – |
| AGAUGGCGAGGAUAUACAUGAGGAUCACCCAUGUGAGAAUAGAAAGUGAGGAAGAAAAGUAGAAGGCGCUGUCA [Mat - Exclusion 3 - Mod of Salish D22] (puzzle: Exclusion 3) | – | – | – | 125 | 59.7 | 73.4 |
| UUAACAUGCUGGUGAUCAUACAUGAGGAUCACCCAUGUAACAAGCUUUUUGCUCGUCUUAUAAUUUAAGAUCACCAG [Stov1/7-A1] (Eterna round: R97, puzzle: Sensor, turn-off variant 1) | 17 | – | 15.9 | – | – | – |
| AGUAGGUCUACCUUGGUGGAUCUGCAUUAUGCAAGUGUUACAUGAGGAUCACCCAUGUCCUCAUUUGCUCGUCUUAU [JL turnoff v2 99.23] (puzzle: Sensor v3, turn-off variant 2) | – | – | – | 37.1 | 130 | 36.2 |
| AUGCUCCGUGUAGGAUAUCGCCGUAUCACUCGGCGAGAAGGACAUGAGGAUCACCCAUGUAUGUUAUUAUCACGUGUGGCGCGC [Design 45] (Eterna round: R96, puzzle: Exclusion NG 1) | 55.2 | 14.8 | 18.3 | – | – | – |
| GGAGAAGUAGGAUAUACAUGAGGAUCACCCAUGUUUUAAUUAAUAUAUGGAAUAGUAAGUAGAAGGAUUAAGUU [A finsh] (Eterna round: R97, puzzle: Exclusion 3) | 35.4 | – | 38.4 | – | – | – |
